Laboratory results reported in the supplement of paper PMC9170038.

What follows are sequences tested on K4 kissing-loop RNA reporter (assay: apparent KD of K4 kissing-loop reporter; higher = weaker reporter binding). Conditions: Eterna round: R107; input ligand: arginine 13.2 mM.
Experimental: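 RNA-MaP round R107: designed RNA switches with theophylline, tryptophan, arginine or FMN aptamers are transcribed on-chip within common flanks. They are titrated with a labelled K4 kissing-loop RNA reporter in RNA-MaP buffer (100 mM Tris pH 7.5, 80 mM KCl, 4 mM MgCl2), without ligand or with the indicated ligand. Median apparent KD per design.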
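Further: bound reporter read as fluorescence of individual clusters on recovered sequencing chips by microscopy, with normalized cluster intensities fitted with a binding model.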

Row | Sequence | apparent KD of K4 kissing-loop reporter
1 | AACUGUCAAGGACAACAUUACUGAGGUGAUACCAGCAUCGAAAGAUGCCCUUGGCAGCACUAACUUGCAGUGAUGUUGCAAGUAA [BrourdMod 2 - Jieux - Exclusion - Theophylline A] | 173 nM
2 | UGGACGUUAUACAAUAAGUAUAACUGGGAUACCAGUGACGAAAGUCACCCUUGGCAGCUCAACUGCCAGUGAUGUUGGUAGUCCA [Astros-Eli-mod#5] | 116 nM
3 | AGGUCCGAGCCUGCAAAGGCUCGGACCUGUUAGGAUAUGACGUUAUUCAGAAGGGAUGGGUGGAGUGAUGUUCCACCCGCAAGGG [#2 Same State - FMN A Attempt #7 (HarryS)] | 105 nM
4 | AAUUUAGUGACGGCCGCCACUAGGGUGAUUUUUUUGUUUGAGUGAUGUUUUGAUGUUUGAUUUUGUAGGACCGGGUUAGGUGAUG [cccmullin] | 310 nM
5 | AGUUCUUGCCGAAGGAGCGAGGCAGAGUGAUGUUCUGCAAAGGUCGAAAGACCUUAACUGCCUCAGGUAGGUCGCGGCAUGAACA [KL-XARG-B23] | 351 nM
6 | GAAGUACAGGCGGCCGCCACUAGUGAUGUUAGUGAUAAAAGAUAUAGUAAAUAUCGGCAUGUAGAUAGGACCGGGCCUGAUGGAG [ggbgmullin] | 220 nM

Same assay, conditions: Eterna round: R107; input ligand: none

Row | Sequence | apparent KD of K4 kissing-loop reporter
7 | GGCAGAGUGAUGUUCGCCCUUUACCUUGAUACCAGUUCAUCUCAAAACCCUUGGCAGCAAGUGUGUAAGAGCGGUAUUGGUCAAU [theeternabot_exclusion_KL_Theo_A_1] | 388 nM
8 | GGAUCCACCAGUGAUGUUGGAGAAAACUCUAAGGAUAUGACGAAAGUCAGAAGGUAGUAGACUGGACAAAGUCCGGUCGGAUCCA [FmnA 23 U30+A56] | 1190 nM
9 | GGGCGCGGCGCGGCCGCCACUGGGCCUGGGCGCUCGCUGAGUGAUGUUCGUCGGCGGCUGGGUCGUAGGACCGGGUGCCGGCUGG [BDazzled - #4 SS Tryptophan B] | 1320 nM
10 | UGAUACCAGACGGCCGCCACUUCCGUAAGUCAAAGACUUACCAAGGGAAUCGUCCAGUGAUGUUGGAGGACCGGGUCUGGUAUCU [FiskerMod 6 - Jieux - Exclusion - Tryptophan B] | 1260 nM
11 | GCCGUAGAUUGAAGGAGCGCCUUCUUACCAAGAGUGAUGUUCUUUGGUACCAUGUUCAGCAGGCAGGUAGGUCGCAAUCUACGGC | 188 nM
12 | GGUGCUGUCUGUGCCGCCCUCCUCGUCCCUCGAGGACCGGUACGGCCGCCACUCGAGUGAUGUUCGGGUAGCGAUCCCUGCUAGC [Bdazzled - #18 Exc. Tryptophan A] | 246 nM
13 | AGCAGUGAUGUUGCAUUUAUAAAGACCGAUACCAGUAUCGAUAGAUACCCUUGGCAGCGGAUUUCCGCAACGACUAGGAAACUAG [Ex Theophylline A K4 13] | 399 nM
14 | AUUUAGACGAGUGAUGUUCGUGUUAUUACAGAGGAUAUGCGUAAUUGCAGAAGGCUGUAUUUAUAUAUGUUAUGUAGUUUUAAAA [whbob_Ex_FMNA__2th184] | 84.8 nM
15 | UGUGUUUACCUGACUCAGUGAUGUUGAGAAGGAGCGUGCAAACGCACAGGUAGGUCGCUCAACCUAAAUUCAGGUGAGCACUAAA | 453 nM
16 | UAAGAGGACCACUGCAAGAGUCCUCGAAUACGAGGACCGGUACGGCCGCCACUCGAUAAUUUGCAGUGAUGUUGCAAGUAAGAAU [BrourdMod 5 - Jieux - Same State Tryptophan A] | 130 nM
17 | CCGGGCGGCCGAAGGAGCGGGCGGACCCGAGUGAUGUUCGGGUGGACCGUGAGGUCCGGUGCCCAGGUAGGUCGCGGUUCCGCCC [#2 Same State - Arginine B Attempt #5 (HarryS)] | 129 nM
18 | UAUUAAUAAUUAUUCUAGUGAUGUUAGAUACGAGGACCGGUACGGCCGCCACUCGCUUAUUGGUUUAUAAAUUUUAUAUUAUUUA [JR_SSTryptoA_Sub017] | 186 nM
19 | CACCGCAACUGAAGGAGCGCGCCAGUGAUGUUGGACGGCUUUGUCAAGGAAACUGCACCGGUGCAGGUAGGUCGCAGUUCGCGGC [Ededisa] | 366 nM
20 | CCCAAAAUAUGCAGUGAUGUUGCAACUGAUACCAGUAUCGAAAGAUACCCUUGGCAGCGGAAAACCGCUACGUAAUUUAAAAGGG [Ex Theophylline A K4 18] | 255 nM
21 | GGCCGGAAGGCGAGCGCUCCCACUCCGGAAGGAGCGCCCGGAAGGGCAGGUAGGUCGCCGGAGUGAUGUUCCGGUGGAGGGCUCG [#2 Exclusion - Arginine A Attempt #19 (Inspired by Omei)] | 80.4 nM
22 | CGAGUGAUGUUCGUUCGUUUAUUUCGUUGACAGGAUAUGCGGAAACGCAGAAGGGUCACCUUUGAGUUAACGGAAUUUACGUUAU [Ex FMN A 27] | 587 nM
23 | CCGCUACCCUCAGGAUAUUAAAUAUUAGUGAUGUUAGUAAACCGAUGGCGAAAGCCAUCGGUAUGUUGAGAAGGGAGGGUAGCGG [whbob_SS_FMNB__2th197] | 2240 nM
24 | AUUCAUUUCAGAGGAUAUCGAUGGAGAGUGAUGUUCUCCCAUAGCCAGUGAUGUUGGCUAGCUAUUCGAGAAGGCUGUGGGUGGA [Same State FMN B GF 27] | 210 nM
25 | GCUAUGGUAGGAAGGAGCGCUACUUUGUUUUUACGAGUGAUGUUCGGAAGCAGAGUGUUAAAGCAGGUAGGUCGCCUACUAUAGC [Arginine B K4 20] | 171 nM
26 | ACACUAUCGUCAUAGACGGUAGUGAAAGCUCAGGAUAUGAGUGAUGUUAGAAGGGAGUAAAUCUUAGGUAUCGAAUAGAUACCAA [FmnA 7 #K4BetweenAptamer #OpenEnded] | 508 nM
27 | UCCUAGGCUCGAAAGAGCCUAGGUAAGACUCAGGAUAUCUGGAAACAGAGAAGGGAGCUACUAGUGAUGUUAGGAAUUCCCAUUU | 89 nM
